In test [1] the target is T1, recombinant human OX40 fused to a His-tag (Acro Biosystems, cat. no. OX0-H5224) (human, UniProt P43489 29-214).
T1 construct: bought protein; also called sOX40; soluble OX40; not shown: His-tag
T1 sequence: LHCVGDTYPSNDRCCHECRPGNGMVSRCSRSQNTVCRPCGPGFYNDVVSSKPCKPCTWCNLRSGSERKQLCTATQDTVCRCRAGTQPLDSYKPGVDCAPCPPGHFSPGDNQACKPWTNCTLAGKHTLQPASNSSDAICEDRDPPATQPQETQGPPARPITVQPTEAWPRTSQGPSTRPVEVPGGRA
Put plainly: BLI cross-block; first Ab (competitor): IgG1-CD134-007. The procedure:
(§1) Amine Reactive 2nd Generation (AR2G) biosensors (Sartorius, cat. no. 18-5092) were activated for 300 s with a solution of 20 mM EDC (N-(3-Dimethylaminopropyl)-N-ethylcarbodiimide hydrochloride; Sartorius, cat. no. 18-1033) and 10 mM s-NHS (N-hydroxysulfosuccinimide sodium salt; Sartorius, cat. no. 18-1067). […] After a baseline measurement in Sample Diluent (Sartorius, cat. no. 18-1104) for 50 s, the AR2G biosensors containing immobilized antibody were loaded for 300 s with human OX40 fused to a His-tag (100 nM diluted in Sample Diluent; Acro Biosystems, cat. no. OX0-H5224). The association (300 s) of a second antibody (10 μg/mL in Sample Diluent) was determined. Sensors were regenerated by three cycles of exposure to 10 mM Glycine (Sigma-Aldrich, cat. no. 15527) buffer pH 2.5 for 5 s followed by neutralization in Sample Diluent for 5 s.
(§2) Data were acquired using Data Acquisition Software v12.0 (Sartorius) and analyzed with Data Analysis HT Software v12.0 (Sartorius). Data traces were corrected by subtraction of a reference curve (Sample Diluent instead of second antibody) in order to correct for the dissociation of antigen from the immobilized first antibody. The Y-axis was aligned to the start of the association step and Savitzky-Golay filtering was applied. The corrected association responses of the second antibodies were plotted in a matrix format (Table 5). Responses ≥0.1 nm were considered non-blocking antibody pairs, while responses <0.1 were considered blocking antibody pairs.

Test [2] concerns the target T1, recombinant human OX40 fused to a …. Put plainly: BLI cross-block; first Ab (competitor): IgG1-CD134-h3C8. As for the experimental part:
as §1, §2

For test [3] the target is unchanged. In words: BLI cross-block; first Ab (competitor): IgG1-CD134-SF2. The procedure: as §1, §2
For test [4] the target is unchanged. Put plainly: BLI cross-block; first Ab (competitor): IgG1-CD134-003. As for the experimental part: (§3) Experiments were carried out while shaking at 1,000 RPM and at 30° C.
as §1, §2

Test [5] has the same target. Put plainly: BLI cross-block; first Ab (competitor): IgG1-CD134-RG7888. As for the experimental part: as §1, §2
Test [6] has the same target. In words: BLI cross-block; first Ab (competitor): IgG1-CD134-MEDI0562. The procedure:
as §1, §2

For test [7] the target is unchanged. Put plainly: BLI cross-block; first Ab (competitor): IgG1-CD134-GBR830. The procedure:
as §3, §1, §2

The target is the same in test [8]. Put plainly: BLI cross-block; first Ab (competitor): IgG1-CD134-ABBV368. As for the experimental part:
as §3, §1, §2

Test [9] has as its target T2, C1q (from normal human serum) (human, UniProt P02745 23-245; P02746 28-253; P02747 29-245).
T2 construct: also called complement factor C1q
In words: flow cytometry, C1q from 20 % normal human serum on antibody-opsonised activated CD4+ T cells, FITC anti-C1q. (A flow cytometer gives signals particle by particle.)
Procedure: Next, cells were washed twice with cold FACS buffer, pelleted, and resuspended in 80 μL FACS buffer supplemented with viability marker TO-PRO™-3 Iodide (Invitrogen, cat. no. T3605; diluted 1:10,000). […] Binding curves were analyzed using nonlinear regression analysis (sigmoidal dose-response with variable slope) using GraphPad Prism software. Binding of OX40 antibodies to the activated T cells was assessed after the incubation step with serial dilutions of antibodies. […] Next, cells were washed twice with cold FACS buffer, pelleted, and resuspended in 80 μL FACS buffer supplemented with viability marker TO-PRO-3 Iodide (diluted 1:10,000). Antibody binding was analyzed by flow cytometry on a BD FACSCelesta Cell Analyzer. Binding curves were analyzed using nonlinear regression analysis (sigmoidal dose-response with variable slope) using GraphPad Prism software.

Test [10] addresses T3, human OX40 expressed on cells (human, UniProt P43489 29-277).
T3 construct: also called CD134; TNFRSF4
T3 sequence: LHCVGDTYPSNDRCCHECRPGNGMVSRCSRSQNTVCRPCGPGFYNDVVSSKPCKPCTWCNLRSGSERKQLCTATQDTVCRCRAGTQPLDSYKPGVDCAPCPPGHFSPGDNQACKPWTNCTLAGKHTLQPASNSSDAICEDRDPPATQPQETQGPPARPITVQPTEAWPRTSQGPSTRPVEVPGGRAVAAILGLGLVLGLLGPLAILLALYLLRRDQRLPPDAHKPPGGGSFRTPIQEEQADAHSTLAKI
In words: flow cytometry, activated human CD8+ T cells, mean of 3 donors. As for the experimental part: Healthy human donor PBMCs were purified essentially as described in Example 7. The cell concentration was adjusted to 2×10⁶ cells per mL (final concentration) in assay medium and plated in 6-well plates (Greiner, cat. no. 657160). PBMCs were stimulated with 0.3 μg/mL anti-CD3 ([…] Technologies, cat. no. 60011) and 0.5 μg/mL anti-CD28 antibodies (BioLegend, cat. no. 302934) and cultured for two days at 37° C., 5% CO₂. Next, the PBMCs were harvested, counted and brought to a concentration of 2×10⁶ cells per mL in FACS buffer 1 (DPBS with 2% heat-inactivated FBS and 2 mM ethylenediaminetetraacetic acid [EDTA]). […] After 60 min at RT, the cells were prepared for flow cytometric analyses. To this end, the cells were washed twice with 150 μL FACS buffer 1 and 30 μL/well cell-surface antibody mix (Table 9) in FACS buffer 1 containing antibody against human Fcγ antibody (Table 9) and fixable viability dye eFluor780 (1:1,500) was added. The staining procedures were carried out at 4° C. for 15-20 min protected from light. Stained cells were washed twice with 120-150 μL FACS buffer 1 (5 min, 460×g, RT) and resuspended in 60-100 μL FACS buffer 1 for direct flow cytometric analyses. Flow cytometric data were acquired on a FACSymphony A3 and analyzed with FlowJo software.

As usually defined, the EC50 is the concentration that produces a half-maximal response. High values mean weaker potency, low ones greater potency.

T2 sequence (P02745 23-245 limits assumed, chain 1 of 3): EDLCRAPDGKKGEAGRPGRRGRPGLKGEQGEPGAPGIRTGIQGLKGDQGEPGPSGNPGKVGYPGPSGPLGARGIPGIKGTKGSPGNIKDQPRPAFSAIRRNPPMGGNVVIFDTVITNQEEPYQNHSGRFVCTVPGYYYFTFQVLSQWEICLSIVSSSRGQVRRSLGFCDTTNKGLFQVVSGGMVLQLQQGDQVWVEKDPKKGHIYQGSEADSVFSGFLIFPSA
T2 sequence (P02746 28-253 limits assumed, chain 2 of 3): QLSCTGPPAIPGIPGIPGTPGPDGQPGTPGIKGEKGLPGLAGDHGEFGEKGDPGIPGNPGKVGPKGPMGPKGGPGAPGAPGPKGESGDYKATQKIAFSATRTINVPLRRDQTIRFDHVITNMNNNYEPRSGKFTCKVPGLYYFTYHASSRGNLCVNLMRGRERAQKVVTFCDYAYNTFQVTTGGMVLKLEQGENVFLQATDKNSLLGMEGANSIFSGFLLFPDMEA
T2 sequence (P02747 29-245 limits assumed, chain 3 of 3): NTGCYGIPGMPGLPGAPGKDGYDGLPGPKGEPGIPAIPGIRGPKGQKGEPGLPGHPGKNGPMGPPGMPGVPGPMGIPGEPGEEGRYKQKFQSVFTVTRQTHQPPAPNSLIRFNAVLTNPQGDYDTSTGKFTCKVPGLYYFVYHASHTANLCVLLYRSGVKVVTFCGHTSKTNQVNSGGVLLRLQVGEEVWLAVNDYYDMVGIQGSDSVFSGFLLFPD

B1: IgG1-CD134-007 (antibody)
heavy: not shown
light: AQVLTQTPSPVSAAVGGTVTISCQSSESVWNNNWLAWYQQKPGQPPNLLIYEASTLASGVSSRFKGSGSGTQFTLTVSEVQSDDAATYYCQGGYYDSSPIWTFGGGTEVVVKRTVAAPSVFIFPPSDEQLKSGTASVVCLLNNFYPREAKVQWKVDNALQSGNSQESVTEQDSKDSTYSLSSTLTLSKADYEKHKVYACEVTHQGLSSPVTKSFNRGEC
notes: rabbit-human chimeric IgG1
On to B1, for which the association response is 0.01 nm in test [1]; -0.02 nm in [2]; 0.22 nm in test [3]; -0.02 nm in test [4]; 0.64 nm in test [5]; 0.32 nm in [6]. The association response in test [7] is 0 nm; in test [8], -0.05 nm.

B2: IgG1-CD134-003-HC6LC2-P329R-E345R (antibody)
heavy: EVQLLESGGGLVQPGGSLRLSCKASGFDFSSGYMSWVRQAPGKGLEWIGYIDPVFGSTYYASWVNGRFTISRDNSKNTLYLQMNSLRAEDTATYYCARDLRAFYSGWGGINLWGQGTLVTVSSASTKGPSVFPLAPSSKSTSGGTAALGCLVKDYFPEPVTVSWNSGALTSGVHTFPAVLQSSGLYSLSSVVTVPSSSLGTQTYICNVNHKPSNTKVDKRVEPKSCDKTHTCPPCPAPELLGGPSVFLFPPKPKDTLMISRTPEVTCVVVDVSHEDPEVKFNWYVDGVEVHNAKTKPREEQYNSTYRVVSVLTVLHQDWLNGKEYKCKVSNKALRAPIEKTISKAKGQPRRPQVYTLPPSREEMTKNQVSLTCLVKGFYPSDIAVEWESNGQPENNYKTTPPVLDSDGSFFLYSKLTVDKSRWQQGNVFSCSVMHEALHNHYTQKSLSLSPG
light: AAVLTQSPSSLSASVGDRVTITCQSSQIVVNNNFLSWYQQKPGKAPKLLIYDASNLASGVPDRFSGSGSGTDFTFTISSLQPEDIATYYCLGGYDDDAENAFGGGTKVEIKRTVAAPSVFIFPPSDEQLKSGTASVVCLLNNFYPREAKVQWKVDNALQSGNSQESVTEQDSKDSTYSLSSTLTLSKADYEKHKVYACEVTHQGLSSPVTKSFNRGEC
notes: humanized; human IgG1 with P329R and E345R (Eu numbering), kappa; also called IgG1-CD134-003-HC6LC2-RR
B2: the association response in [1] was -0.04 nm; in [2] it was 0.5 nm; in test [3], 0.22 nm; in test [4], 0.04 nm; in test [5], 0.65 nm; in [6], 0.34 nm. In addition, the association response in test [7] turned out to be 0.19 nm; in [8] it was 0.85 nm. In addition, in test [9], the binding result was “no binding (tested: 30 µg/mL antibody)”. Besides, the EC50 in [10] came to 0.0236 µg/mL.

B3: IgG1-CD134-003 (antibody)
heavy: not shown
light: AAVLTQTPSPVSAAVGGTVTIKCQSSQIVVNNNFLSWYQQKPGQPPKLLIYDASNLASGVPDRFSGSGSGTQFTLTISGVQSDDAATYYCLGGYDDDAENAFGGGTEVVVQRTVAAPSVFIFPPSDEQLKSGTASVVCLLNNFYPREAKVQWKVDNALQSGNSQESVTEQDSKDSTYSLSSTLTLSKADYEKHKVYACEVTHQGLSSPVTKSFNRGEC
notes: rabbit-human chimeric IgG1, wild-type Fc; also called parental chimeric antibody
B3: the association response in test [1] was -0.07 nm; in [2] it was 0.46 nm; in [3], 0.21 nm; in test [4], 0.02 nm; in test [5] it was 0.66 nm; in [6], 0.3 nm. Moreover, the association response in test [7] was determined as 0.2 nm; in test [8], 0.72 nm.

B4: IgG1-CD134-012 (antibody)
heavy: not shown
light: DIVMTQTPASVEAAVGGTVTIKCQASENIYSSLAWYQQKPGQPPKLLIYRTSTLASGVPSRFKGSGSGTQFTLTISDLESDDAATYYCQSYYHNSGGGYDYGFGGGTEVVAKRTVAAPSVFIFPPSDEQLKSGTASVVCLLNNFYPREAKVQWKVDNALQSGNSQESVTEQDSKDSTYSLSSTLTLSKADYEKHKVYACEVTHQGLSSPVTKSFNRGEC
notes: rabbit-human chimeric IgG1
On to B4, for which the association response worked out at 0.82 nm in test [1]; 0.35 nm in test [2]; 0.14 nm in test [3]; 0 nm in [4]; 0.42 nm in [5]; 0.23 nm in test [6]. In addition, the results for the association response in test [7] and in [8] were 0.16 nm and 0.51 nm, respectively.

These data come from patent US20240400703A1 (Genmab, published 2024).
